Values of other authors, collected in patent US10927175B2, “Method for treating cancer” (Sun Jet Biotechnology Inc., priority 2017, dated 2021).

Test system: metastatic duodenal adenocarcinoma
Details: gradually decreasing prednisolone and replacing tacrolimus with sirolimus after nivolumab

In the case of nivolumab, the allograft outcome is given as “preserved” and the tumor outcome is given as “regressed”.
